In test [1] the target is T1, Peptide A (entire sequence of AS-SPIK without disulfide bonds) (human, cysteine side-groups inactivated, no disulfide bonds).
T1 construct: Synthesized by BioMatik
T1 peptide: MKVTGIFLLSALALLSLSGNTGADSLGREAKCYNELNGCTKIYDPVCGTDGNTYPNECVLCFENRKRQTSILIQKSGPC
In words: ELISA, plate coated with peptide, HRP-labelled antibody. The source says: In order to further support the observation that epitopes specific to AS-SPIK and not NS-SPIK are conformation-dependent, additional tests to evaluate antibody binding to various synthesized peptides was completed. Four peptides, each containing sequences from different regions of AS-SPIK were synthesized by BioMatik (Wilmington DE). Peptide A contains the entire sequence of AS-SPIK, but without the formation of any disulfide bonds via the inactivation of cysteine side-groups. Peptide B contains the sequence of AS-SPIK fragment from M₁-G₅₀, Peptide C contains the sequence of AS-SPIK fragment from D₂₃-G₅₀ and Peptide D contains the sequence of AS-SPIK fragment from N₅₁-C₇₉. The binding activity of our monoclonal antibodies to AS-SPIK and the other peptides was tested by ELISA and results for IM-CA22 are shown in FIG. 6. Similar results were obtained from all other monoclonal anti-AS-SPIK antibodies we have developed, including IM-CA18, IM-CA46, IM-CA77, IM-A1, IM-A6, IM-B10, IM-C6, IM-D3, IM-D5, IM-E2, IM-F5, IM-G6 and IM-G7. Briefly, a 96-well plate was coated with Native AS-SPIK and different peptides, the plate then reacted with anti-AS-SPIK antibody (IM-CA22 herein) labeled with HRP. The OD450 nm was determined after incubating the plate with the substrate, TMB.
(An ELISA detects its analyte on a solid surface through an enzyme-linked reagent.)

The next test concerns the target IM-CA22. In words: competition ELISA: 0.5 µg/mL peptide added to prevent the binding of AS-SPIK with IM-CA22; inhibition rate from OD value with vs without peptide.
Chain of IM-CA22 (VH, as listed by the source, chain 1 of 2): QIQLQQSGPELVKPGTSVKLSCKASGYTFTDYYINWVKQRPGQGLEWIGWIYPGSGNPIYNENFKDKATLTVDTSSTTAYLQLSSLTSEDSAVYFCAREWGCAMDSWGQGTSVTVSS
Chain of IM-CA22 (VL, as listed by the source, chain 2 of 2): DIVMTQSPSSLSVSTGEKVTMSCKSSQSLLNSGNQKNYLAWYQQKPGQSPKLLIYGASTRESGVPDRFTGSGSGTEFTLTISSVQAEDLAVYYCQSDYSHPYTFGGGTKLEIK

B1: IM-E2 (antibody, V domains shown)
VH: QSVKESEGGLFKPTDTLTLTCTVSGFSLSAYAISWVRQAPGNGLEWIGAINSGGSAYYANWAKSRSTITRNTNLNTVTLKMTSLTAADTATYFCAREDIYDYGGAFDPWGPGTLVTVST
VL: AYDMTQTPASVEVTVGGTVTIKCQASQGISSYLSWYQQKPGQPPKLLIYAATTLVSGVSSRFKGSGSGTQFTLTISGVECADAATYYCQQDYTTSNVDNTFGGGTEVVVKG
notes: Rabbit monoclonal, Class II
As for B1, in test [1], the binding result is given as “no binding”.
In the test with IM-CA22, LLSLSGNTGADSL [SPIK3] had an Inhibition % of 11%.

B2: IM-C6 (antibody, V domains shown)
VH: QSVKESEGGLFKPTDALTLTCTVSGFSLSSYAISWVRQAPGSGLEWIGAINTYGGTYYASWAKSRSTITRNTNENTVTLKMTSLTAADTATYFCARDFDSDAYTSASGGMDWGPGTLVTVSS
VL: AYDMTQTPASVEVAVGGTVTIKCQASQSINNYLSWYQQIPGQPPKLLIYRASTLASGVSSRFKGSGSGTQFTLTISGVQCADAATYYCQQGYTSNVDNVFGGGTEVVVKG
notes: Rabbit monoclonal, Class II
Turning to B2, the binding result in test [1] is listed as “no binding”.
On to SLSGNTGADSLGR [SPIK2], for which the Inhibition % in the test with IM-CA22 stood at 10%.
In the case of SGNTGADSLGREA [SPIK1], the Inhibition % with IM-CA22 turned out to be 9%.
On the same count and under the same terms, with LSLSGNTGA [SPIK8] the figure was 11%.

(Values after patent US20240043512A1 (IMCARE BIOTECH, published 2024).)
